The values below come from patent publication EP4115900A1.

The target of this test is gC1qR (C1QBP) on human T cells (human) (UniProt Q07021). The test is described as follows: cell-based or functional assay.

With HCV core protein (Prospec HCV-011), the PLA2G1B enzymatic activity on the membrane of CD4 T cells ([3H] arachidonic acid release) amounted to 26 Fold.

On to “Staphylococcus aureus protein A (Sigma P6031)”, for which the PLA2G1B enzymatic activity on the membrane of CD4 T cells ([3H] arachidonic acid release) is 3 Fold.
